Target: T1, TtAgo (Thermus thermophilus Argonaute) (Thermus thermophilus, UniProt Q746M7 1-685)
T1 sequence: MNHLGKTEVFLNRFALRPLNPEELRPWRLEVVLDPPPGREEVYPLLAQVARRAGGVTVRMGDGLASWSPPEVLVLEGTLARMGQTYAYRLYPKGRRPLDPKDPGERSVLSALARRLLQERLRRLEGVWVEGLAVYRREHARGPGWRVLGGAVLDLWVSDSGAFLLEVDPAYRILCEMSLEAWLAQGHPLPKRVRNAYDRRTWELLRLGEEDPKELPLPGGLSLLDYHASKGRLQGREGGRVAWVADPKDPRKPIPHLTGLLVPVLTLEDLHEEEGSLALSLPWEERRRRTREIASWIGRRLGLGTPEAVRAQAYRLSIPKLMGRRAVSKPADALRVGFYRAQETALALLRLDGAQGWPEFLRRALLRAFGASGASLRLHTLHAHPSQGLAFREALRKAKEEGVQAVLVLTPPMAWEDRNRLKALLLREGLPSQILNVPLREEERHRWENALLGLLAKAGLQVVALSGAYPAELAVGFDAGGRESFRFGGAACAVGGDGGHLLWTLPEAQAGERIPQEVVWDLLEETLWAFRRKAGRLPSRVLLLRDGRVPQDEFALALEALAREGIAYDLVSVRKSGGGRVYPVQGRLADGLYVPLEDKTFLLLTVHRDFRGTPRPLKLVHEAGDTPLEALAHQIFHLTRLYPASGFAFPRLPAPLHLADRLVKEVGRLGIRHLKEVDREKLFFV
Assay: EMSA; ternary complex; higher than with C-gDNA; BLI in 1x reaction buffer (composition, pH and temperature not given in the material); EMSA conditions not given
Settings: protein: recombinant; tags: Ni-column purified; dialyzed with TEV protease (tag not described); guide 1-18 pairs with target 12-29; target overhangs 11 nt 5', 1 nt 3'

B1: F1-gDNA + target (mixed)
DNA 1: CATGCATCGATCAGCTAC
DNA 2: CTGCAGTCGTCGTAGCTGATCGATGCATGC
modifications: 2'-F on C18 of guide
B1: binds.

Source: paper PMC11267260, “Atom‐Modified gDNA Enhances Cleavage Activity of TtAgo Enabling Ultra‐Sensitive Nucleic Acid Testing”
